Consider 3 substances from paper PMC5518878.

For the test, the target named is Rhodopsin. Kind of test: Tango assay. The following applies: read off a plot.

As to “human GRK1, full length, fused to the N-terminus of TEV protease (from UniProt Q15835) K46L”, the response by setting is: (ATR, parent: est. 0.39) 0.71; (vehicle, parent: est. 0.08) 0.18.
The corresponding values for “human GRK1, full length, fused to the N-terminus of TEV protease (from UniProt Q15835) K46W” are 0.77 and 0.2.
The corresponding values for “human GRK1, full length, fused to the N-terminus of TEV protease (from UniProt Q15835) K46Y” are 0.76 and 0.17.
